Laboratory results reported in paper PMC9083094.
Several values for one entry are separate records, joined by “and”; a condition that tells them apart may be missing. Equal entries are not always repeated.

Experiments:
[1] = biological target: Aβ_(C18C33), mutant Aβ42 peptide containing an intramolecular disulfide bond; experiment: SDS-PAGE
[2] = biological target: Aβ_(C18C33), mutant Aβ42 peptide containing an intramolecular disulfide bond; experiment: native MS
[3] = biological target: Aβ_(C18C33), mutant Aβ42 peptide containing an intramolecular disulfide bond; experiment: SDS-PAGE; remark: listed apart in the source
[4] = biological target: Aβ_(C18C33), mutant Aβ42 peptide containing an intramolecular disulfide bond; experiment: native MS; remark: listed apart in the source
[5] = biological target: Aβ_(C18C33), mutant Aβ42 peptide containing an intramolecular disulfide bond; experiment: SEC-MS
[6] = biological target: Aβ_(C18C33), mutant Aβ42 peptide containing an intramolecular disulfide bond; experiment: native MS; remark: listed apart in the source
[7] = biological target: Aβ_(C24C29), mutant Aβ42 peptide with an intramolecular disulfide bond; experiment: SDS-PAGE

Row | Substance | stoichiometry N [1] | stoichiometry N [2] | stoichiometry N [3] | stoichiometry N [4] | stoichiometry N [5] | stoichiometry N [6] | stoichiometry N [7]
1 | Aβ_(C18C33), mutant Aβ42 peptide containing an intramolecular disulfide bond | 2 | 2 and 4 | 2 | 4 | 2 | 4 | 
2 | Aβ_(C24C29), mutant Aβ42 peptide with an intramolecular disulfide bond |  |  |  |  |  |  | 3 and 4
